The text below walks through data of patent publication US20030148956A1 (PROCTER AND GAMBLE, published 2003).

Ends that are not written are not given here.

Test [1] deals with corticotropin releasing factor 1 receptor. Nature of the test: cell-based or functional assay.
The target of test [2] is T1, corticotropin releasing factor 2 receptor.
T1 sequence (Q13324 whole entry, species assumed, looked up): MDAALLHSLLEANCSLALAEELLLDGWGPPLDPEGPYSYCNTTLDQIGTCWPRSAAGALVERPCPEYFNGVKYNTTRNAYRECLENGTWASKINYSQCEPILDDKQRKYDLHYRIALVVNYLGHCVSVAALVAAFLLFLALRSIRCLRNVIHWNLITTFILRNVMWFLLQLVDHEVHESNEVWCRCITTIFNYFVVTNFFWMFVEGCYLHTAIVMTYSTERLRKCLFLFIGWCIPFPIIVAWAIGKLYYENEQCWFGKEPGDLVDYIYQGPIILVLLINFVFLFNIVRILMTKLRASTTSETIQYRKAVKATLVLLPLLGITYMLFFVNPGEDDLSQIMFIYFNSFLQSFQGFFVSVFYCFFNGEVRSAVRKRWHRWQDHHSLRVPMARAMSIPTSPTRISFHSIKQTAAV
Briefly: cell-based or functional assay.

B1: SEQ ID NO 315 (peptide)
peptide: ZGPPISIDLPYHLLRKMIEIEKQEKEKQQAANNALLLAT
modifications: C-terminal amide
As to B1, in test [1], the “CRF1R EC50” value is 454 nM and the “CRF1R Emax %” value is 100%. Besides, in test [2], the “CRF2R EC50” value stood at 9.35 nM and the “CRF2R Emax %” value was 81.7%.

B2: SEQ ID NO 297 (peptide)
peptide: ZGPPISIDLPIILLRKVIEIEKQEKEKQQAANNRLLLDTI
modifications: C-terminal amide
Take B2: in test [1], the “CRF1R EC50” value turned out to be 1000 nM and the “CRF1R Emax %” value came out at 27.2%. Also, in test [2], the “CRF2R EC50” value was found to be 100 nM and the “CRF2R Emax %” value was 88.3%.

B3: SEQ ID NO 301 (peptide)
peptide: ZGPPISIDLPTALLRKMIEIEKQEKEKQQAANNRLLLDTI
modifications: not fully specified; C-terminal amide
With B3, in test [1], the “CRF1R EC50” value was determined as 690 nM and the “CRF1R Emax %” value was 84.1%. In test [2], the “CRF2R EC50” value turned out to be 50.5 nM and the “CRF2R Emax %” value is 88.4%.

B4: SEQ ID NO 309 (peptide)
peptide: ZGPPISIDLPYALLRKMIEIEKQEKEKQQAANNRLLLDTI
modifications: not fully specified; C-terminal amide
Regarding B4, in test [1], the “CRF1R EC50” value amounted to 108 nM and the “CRF1R Emax %” value worked out at 96.3%. Also, in test [2], the “CRF2R EC50” value amounted to 5.55 nM and the “CRF2R Emax %” value came to 99.9%.

B5: SEQ ID NO 317 (peptide)
peptide: ZGPPISIDLPFFLLRKVIEIEKQEKEKQQAANNALLLATI
modifications: C-terminal amide
On to B5, for which, in test [1], the “CRF1R EC50” value turned out to be 188 nM and the “CRF1R Emax %” value is 100%. In test [2], the “CRF2R EC50” value was found to be 9.3 nM and the “CRF2R Emax %” value was 88.3%.

B6: SEQ ID NO 302 (peptide)
peptide: ZGPPISIDLPQALLRKMIEIEKQEKEKQQAANNRLLLDTI
modifications: not fully specified; C-terminal amide
On to B6, for which, in test [1], the “CRF1R EC50” value came out at 366 nM and the “CRF1R Emax %” value was determined as 100%. Also, in test [2], the “CRF2R EC50” value stood at 36.2 nM and the “CRF2R Emax %” value worked out at 100%.

B7: SEQ ID NO 306 (peptide)
peptide: ZGPPISIDLPIALLRKMIEIEKQEKEKQQAANNRLLLDTI
modifications: not fully specified; C-terminal amide
On to B7, for which, in test [1], the “CRF1R EC50” value was 608 nM and the “CRF1R Emax %” value amounted to 97.7%. In test [2], the “CRF2R EC50” value stood at 27.6 nM and the “CRF2R Emax %” value was 100%.

B8: SEQ ID NO 307 (peptide)
peptide: ZGPPISIDLPFALLRKMIEIEKQEKEKQQAANNRLLLDTI
modifications: not fully specified; C-terminal amide
For B8, in test [1], the “CRF1R EC50” value came out at 78.4 nM and the “CRF1R Emax %” value came out at 92.7%. In test [2], the “CRF2R EC50” value stood at 5.82 nM and the “CRF2R Emax %” value was determined as 96.5%.

B9: SEQ ID NO 311 (peptide)
peptide: ZGPPISIDLPYWLLRKVIEIEKQEKEKQQAANNALLLDTI
modifications: C-terminal amide
In the case of B9, in test [1], the “CRF1R EC50” value was 1000 nM and the “CRF1R Emax %” value amounted to 29.7%. In addition, in test [2], the “CRF2R EC50” value is 11.7 nM and the “CRF2R Emax %” value stood at 100%.

B10: SEQ ID NO 299 (peptide)
peptide: ZGPPISIDLPQILLRKVIEIEKQEKEKQQAANNALLLATI
modifications: C-terminal amide
Take B10: in test [1], the “CRF1R EC50” value stood at 1000 nM and the “CRF1R Emax %” value worked out at 10.2%. Also, in test [2], the “CRF2R EC50” value was found to be 46.4 nM and the “CRF2R Emax %” value is 71.5%.

B11: SEQ ID NO 318 (peptide)
peptide: ZGPPISIDLPFFLLRKMIEIEKQEKEKQQAANNALLLDTI
modifications: C-terminal amide
As for B11, in test [1], the “CRF1R EC50” value turned out to be 134 nM and the “CRF1R Emax %” value was found to be 92.8%. In test [2], the “CRF2R EC50” value is 9.95 nM and the “CRF2R Emax %” value was 95.4%.

B12: SEQ ID NO 310 (peptide)
peptide: ZGPPISIDLPYWLLRKMIEIEKQEKEKQQAANNALLLDTI
modifications: C-terminal amide
B12: in test [1], the “CRF1R EC50” value was found to be 1000 nM and the “CRF1R Emax %” value turned out to be 45.3%. For the same molecule, in test [2], the “CRF2R EC50” value is 8.7 nM and the “CRF2R Emax %” value amounted to 87.5%.

B13: SEQ ID NO 313 (peptide)
peptide: ZGPPISIDLPYHLLRKVIEIEKQEKEKQQAANNALLLATI
modifications: C-terminal amide
Take B13: in test [1], the “CRF1R EC50” value is 704 nM and the “CRF1R Emax %” value was determined as 87.1%. Besides, in test [2], the “CRF2R EC50” value was determined as 11.1 nM and the “CRF2R Emax %” value worked out at 95%.

B14: SEQ ID NO 316 (peptide)
peptide: ZGPPISIDLPFFLLRKVIEIEKQEKEKQQAANNALLLDTI
modifications: C-terminal amide
As to B14, in test [1], the “CRF1R EC50” value turned out to be 222 nM and the “CRF1R Emax %” value is 92.3%. Further, in test [2], the “CRF2R EC50” value worked out at 10.2 nM and the “CRF2R Emax %” value is 94.5%.

B15: SEQ ID NO 305 (peptide)
peptide: ZGPPISIDLPVALLRKMIEIEKQEKEKQQAANNRLLLDTI
modifications: not fully specified; C-terminal amide
Consider B15, for which, in test [1], the “CRF1R EC50” value was determined as 1000 nM and the “CRF1R Emax %” value turned out to be 59.5%. For the same molecule, in test [2], the “CRF2R EC50” value is 35.5 nM and the “CRF2R Emax %” value came out at 95.2%.

B16: SEQ ID NO 308 (peptide)
peptide: ZGPPISIDLPLALLRKMIEIEKQEKEKQQAANNRLLLDTI
modifications: not fully specified; C-terminal amide
With B16, in test [1], the “CRF1R EC50” value was 63.5 nM and the “CRF1R Emax %” value came out at 100%. Besides, in test [2], the “CRF2R EC50” value is 3.3 nM and the “CRF2R Emax %” value worked out at 72.8%.

B17: SEQ ID NO 312 (peptide)
peptide: ZGPPISIDLPYHLLRKVIEIEKQEKEKQQAANNALLLDTI
modifications: C-terminal amide
Turning to B17, in test [1], the “CRF1R EC50” value came to 870 nM and the “CRF1R Emax %” value was found to be 62%. In addition, in test [2], the “CRF2R EC50” value came out at 14.1 nM and the “CRF2R Emax %” value worked out at 95%.

B18: SEQ ID NO 298 (peptide)
peptide: ZGPPISIDLPIFLLRKMIEIEKQEKEKQQAANNALLLATI
modifications: C-terminal amide
For B18, in test [1], the “CRF1R EC50” value turned out to be 1000 nM and the “CRF1R Emax %” value stood at 20.1%. Moreover, in test [2], the “CRF2R EC50” value was determined as 82 nM and the “CRF2R Emax %” value turned out to be 98.8%.

B19: SEQ ID NO 303 (peptide)
peptide: ZGPPISIDLPAALLRKMIEIEKQEKEKQQAANNRLLLDTI
modifications: not fully specified; C-terminal amide
In the case of B19, in test [1], the “CRF1R EC50” value came to 582 nM and the “CRF1R Emax %” value worked out at 100%. Moreover, in test [2], the “CRF2R EC50” value stood at 27.2 nM and the “CRF2R Emax %” value is 100%.

B20: SEQ ID NO 304 (peptide)
peptide: ZGPPISIDLPHALLRKMIEIEKQEKEKQQAANNRLLLDTI
modifications: not fully specified; C-terminal amide
Consider B20, for which, in test [1], the “CRF1R EC50” value was determined as 116 nM and the “CRF1R Emax %” value came out at 100%. In test [2], the “CRF2R EC50” value stood at 19.3 nM and the “CRF2R Emax %” value was 92.5%.

B21: SEQ ID NO 314 (peptide)
peptide: ZGPPISIDLPYHLLRKMIEIEKQEKEKQQAANNALLLDTI
modifications: C-terminal amide
On to B21, for which, in test [1], the “CRF1R EC50” value is 978 nM and the “CRF1R Emax %” value came out at 82.4%. In test [2], the “CRF2R EC50” value was determined as 10.3 nM and the “CRF2R Emax %” value is 99.8%.

B22: SEQ ID NO 296 (peptide)
peptide: HHHHHHIVLSLDVPIGLLQILLEQARARAAREQATTNARILARN-NH2
With B22, in test [1], the “CRF1R EC50” value was 100 nM and the “CRF1R Emax %” value was 4%. In test [2], the “CRF2R EC50” value stood at 6.66 nM and the “CRF2R Emax %” value was 65%.

B23: SEQ ID NO 300 (peptide)
peptide: IVLSLDVPIGLLQKVIEIEKQEKEKQQATTNARILARV-NH2
Consider B23, for which, in test [1], the “CRF1R EC50” value came to 1000 nM and the “CRF1R Emax %” value was 7.95%. Further, in test [2], the “CRF2R EC50” value was found to be 17.1 nM and the “CRF2R Emax %” value turned out to be 100%.
